Measured values published in the supplement of paper PMC10567573.
± gives the standard deviation.

Assay: protein stability index of a GFP-peptide fusion (GPS, HEK-293T) (PSI 1-6); higher = more stable
[1] = treatment: DMSO, c terminus: a fixed tail appended
[2] = treatment: MLN4924 1 uM, 8 h, c terminus: a fixed tail appended
[3] = treatment: DMSO, c terminus: native
[4] = treatment: MLN4924 1 uM, 8 h, c terminus: native
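Note: 24-mer peptide tiles fused after GFP, lentivirally expressed, FACS-sorted into six equal bins by GFP/DsRed ratio, decoded by Illumina sequencing, PSI is the read-weighted mean bin number.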

Sequence | protein stability index [1] | protein stability index [2] | protein stability index [3] | protein stability index [4]
KLAQALHEMREQHDAQVRLYKEEL [LMNB1] | 2.66 ± 0.3 | 2.7 ± 0.22 | – | –
LCEEFRNRNQRIVQLIQDTRIHIL [CPN1] | 2.25 ± 0.13 | 2.4 ± 0.26 | – | –
RDLALVSRDGMNIVLNKINQILME [INTS3] | 2.58 ± 0.28 | 2.69 ± 0.67 | – | –
NSSNSDIVHVEKEEVPEGMEEAAV [BCL2L13] | 5.6 ± 0.14 | 5.61 ± 0.28 | – | –
LVQVTLLDTVELATYCVRTFALYK [PTPRD] | 3.1 ± 0.49 | 2.97 ± 0.81 | – | –
RETLIIAVLVSASIANLWLWMNQ [FATE1] | – | – | 2.54 ± 0.14 | 2.31 ± 0.21
GCSSTQGNGRPGRPSQYRPDGLRS [LCOR] | 4.07 ± 0.085 | 4.14 ± 0.17 | – | –
SAVSTPSPVTRTRSLSACNKRVGM [DLC1] | 4.36 ± 0.19 | 4.38 ± 0.16 | – | –
VILIFHCEFSSERGPRMCRFIRER [CDC25B] | 2.78 ± 1.1 | 2.64 ± 0.83 | – | –
NQMDKARRHPQGAWKELDRNYLNY [CHGB] | 2.77 ± 0.32 | 2.84 ± 0.19 | – | –
KRRRKETSECPSDKDKSPESHKAK [C10orf62] | 5.34 ± 0.27 | 5.42 ± 0.21 | – | –
SPDDPESVKIIFKLPNDSRVERRF [FAF2] | 3.36 ± 0.23 | 3.46 ± 0.24 | – | –
AFREFDRDRDGRITVAELREAVPA [CABP4] | 4.65 ± 0.37 | 4.58 ± 0.17 | – | –
LGVAQRSLPLQDELAFAEDLVLDE [ESRRA] | 3.38 ± 0.65 | 3.93 ± 0.71 | – | –
KSEEELAECFRIFDRNADGYIDPE [TNNC2] | 4.8 ± 0.52 | 5.29 ± 0.43 | – | –
GIGGGIGGGSSRISSVLAGGSCRA [KRT16] | 3.87 ± 0.23 | 4.05 ± 0.24 | – | –
PNLNETSIVSGGYGGSGDGLIPTG [ARFIP2] | 4.18 ± 0.13 | 4.45 ± 0.095 | – | –
WELHSLRHCDDDGRTENGALAPKQ [ZNF24] | 4.91 ± 0.16 | 4.95 ± 0.19 | – | –
SQDEPIALDKQHSRDSAAITHSTY [NOL4L] | 5.01 ± 0.22 | 5.08 ± 0.16 | – | –
EKFDIVKKWGINTYKCTKQLLSER [ARFIP2] | 2.78 ± 0.37 | 2.79 ± 0.19 | – | –
SVIEEDLEEFQLALKHYVESASSQ [NECAB1] | 3.78 ± 0.58 | 3.84 ± 0.077 | – | –
SFFFPPVNLPISFFRKLLDCCQVS [NLN] | 2.23 ± 0.77 | 2.25 ± 0.5 | – | –
RGIDSSSVKLRGSSLFMDTEKSGK [WEE1] | 4.91 ± 0.57 | 4.99 ± 0.25 | – | –

Sequence | protein stability index [1] | protein stability index [2] | protein stability index [3] | protein stability index [4]
SQEETSILRCWKCRKCIASSGCFM [RNF180] | 2.81 ± 0.4 | 2.89 ± 0.35 | – | –
GQTGTRLTPADKAEHMKRQRHPRL [AUP1] | 4.32 ± 0.18 | 4.6 ± 0.075 | – | –
MAAMFNGNYMEAKSVLIPVYGVSK [RHOBTB3] | 2.27 ± 0.35 | 2.12 ± 0.33 | – | –
MHTNYLSACSFTNSDMQILTASGD [GNB5] | 2.99 ± 0.22 | 3.27 ± 0.26 | – | –
ENYETVISLALFVLPKPKVISCLE [ZNF75A] | 3.11 ± 0.47 | 3.46 ± 0.28 | – | –
QKGIPPSLRGRAWQYLSGGKVKLQ [TBC1D10A] | 2.8 ± 0.13 | 3 ± 0.21 | – | –
LDEALKHVKETQPPETVQNWIELL [GOLPH3] | 3.94 ± 0.18 | 4.17 ± 0.24 | – | –
FLDKSGSHGYDMSTFIRRYSRYLN [SNAP91] | 2.38 ± 0.4 | 2.64 ± 0.49 | – | –
SIGALISKAHLEKVRSYVKRALAE [ALDH8A1] | 2.42 ± 0.51 | 2.6 ± 1.1 | – | –
EDGPGKEEAPELDEAELDYLMDVL [SERTAD1] | 5.08 ± 0.12 | 5.01 ± 0.21 | – | –
QGMIQLALSGASQPGPSGAPAQRA [RETREG3] | 4.26 ± 0.1 | 4.32 ± 0.22 | – | –
SLSELLSQLDSGVSQAVEGPEELS [RIPK4] | 4.27 ± 0.29 | 4.1 ± 0.4 | – | –
EADASHCIQQILEAVLHCHQMGVV [CAMK2A] | 3.3 ± 0.15 | 2.86 ± 0.71 | – | –
CCRACSVSFSTGAGGWSNHHFCVI [BET1L] | 2.42 ± 0.26 | 2.35 ± 0.33 | – | –
TSPTRQHHVEREKDHSSSRPSSPR [BTBD10] | 5.38 ± 0.12 | 5.45 ± 0.092 | – | –
AILGEQRPRQRQRVYPKCTWLTTP [TCF25] | 2.46 ± 0.38 | 2.05 ± 0.27 | – | –
EKALQVLVDQSKKANSPLKGHERT [VPS39] | 4.06 ± 0.21 | 4.48 ± 0.26 | – | –
ARLRHQELFRLRGIKAQVALRLAE [NOP53] | 2.22 ± 0.15 | 2.22 ± 0.31 | – | –
PVPVIVSNFNYFYHRETEGEEQAQ [KCNA1] | 3.62 ± 0.25 | 3.81 ± 0.4 | – | –
GGRTALHHAALNGHVEMVNLLLAK [ANKRD44] | 2.76 ± 0.35 | 2.69 ± 0.23 | – | –
FGAVNLSSPSNMLPVRPQTNALIG [CLINT1] | 3.23 ± 0.12 | 3.26 ± 0.41 | – | –
HTVPDFHLSSPAKNFFKKAAAALF [PLK2] | 2.74 ± 0.96 | 2.65 ± 0.73 | – | –
INSTAPFEEQENYFLLCDVLPEDR [ZNF277] | 3.92 ± 0.36 | 4.12 ± 0.18 | – | –

Sequence | protein stability index [1] | protein stability index [2] | protein stability index [3] | protein stability index [4]
EFAGSSPQSSKSTVVKSLIDNSSE [FAN1] | 5.08 ± 0.27 | 5.28 ± 0.12 | – | –
EMDWAQMACHRCLVYLGDLSRYQN [SMG5] | 2.36 ± 0.4 | 2.17 ± 0.18 | – | –
KTKAPAPDEGSDLFYDDYYEDGEV [CDC34] | 5.35 ± 0.31 | 5.38 ± 0.29 | – | –
TEELNKEVASNTEMIQTSKTEITD [KRT15] | 5.49 ± 0.29 | 5.52 ± 0.19 | – | –
SPELGRPHDRSQGDWAPPPEGGME [ZNF263] | 5.18 ± 0.21 | 5.41 ± 0.25 | – | –
DLEMKEEEEISETGELVGPFVSAM [ZBED2] | 5.29 ± 0.27 | 5.27 ± 0.12 | – | –
KQQKDPSEEAAVLQYASLVGQKCS [ATE1] | 4.84 ± 0.23 | 4.77 ± 0.2 | – | –
NSLQSYQLSPNKHFSLRVQSRANG [PCDHGA10] | 3.41 ± 0.077 | 3.64 ± 0.42 | – | –
LELLDKIERSKIVSTMRCKTRQKS [PPEF2] | 3.54 ± 0.43 | 3.73 ± 0.074 | – | –
AALAAMNGRKIMGKEVKVNWATTP [TIA1] | 2.25 ± 0.32 | 2.3 ± 0.28 | – | –
REKTNICYLSFPDSNSGCLGDTQF [DENND6A] | 2.88 ± 0.063 | 2.9 ± 0.25 | – | –
SMRKIVATWMLEVCEEQKCEEEVF [CCND1] | 2.3 ± 0.25 | 2.47 ± 0.17 | – | –
KRIAHFDLKPENIMLLDKNVPNPR [DAPK3] | 3.68 ± 0.44 | 3.25 ± 0.77 | – | –
ASLPSQKYPGPQAEGDSEGLSQGL [CHGA] | 5.2 ± 0.28 | 5.25 ± 0.17 | – | –
MEEVISPRQVSYTPQHHEKQYAMQ [IQUB] | 4.38 ± 0.15 | 4.31 ± 0.29 | – | –
GEEQVELSTIEELIKDAIVSTQPA [C2CD2L] | 4.69 ± 0.3 | 4.7 ± 0.16 | – | –
AGKSGTSTPTTPGSTAITPGTPPS [MAP2] | 5.11 ± 0.33 | 5.11 ± 0.44 | – | –
FHRLDEPPHICWDETHFGKMGSYY [POMT2] | 2.42 ± 0.51 | 2.36 ± 0.4 | – | –
RTILLSVISLLNEPNTFSPANVDA [CDC34] | 2.77 ± 0.41 | 2.66 ± 0.54 | – | –
EQPITDFCSVIRINSTAPFEEQEN [ZNF277] | 4.4 ± 0.23 | 4.46 ± 0.3 | – | –
HTGEPLFSGSNEVDQMNRIVEVLG [DYRK1B] | 3.59 ± 0.21 | 3.57 ± 0.25 | – | –
LAMLALLSPLSLAQYDSWPHYPEY [LOXL2] | 3.22 ± 0.32 | 3.46 ± 0.16 | – | –
TCSADHLIILWKNGERESGLRSLR [WDR41] | 2.09 ± 0.25 | 2.28 ± 0.17 | – | –

Sequence | protein stability index [1] | protein stability index [2] | protein stability index [3] | protein stability index [4]
PFEPQALGLSPSWRLTGFSGMKG [SEPHS2] | – | – | 2.51 ± 0.53 | 2.64 ± 0.25
DPEVLEAVGDRQDGLREQLQAPVP [PBXIP1] | 5.43 ± 0.27 | 5.4 ± 0.24 | – | –
PNRQLWIELAPLSMPRINHGVLSA [GAN] | 2.17 ± 0.47 | 2.19 ± 0.13 | – | –
SRVGKQSFIITLGCNSVLIQFATP [CARM1] | 2.83 ± 0.4 | 2.97 ± 0.56 | – | –
GILGFNSAEWFITAVGAILAGGLC [ACSBG2] | – | 3.62 ± 0.54 | – | –
SLVSLVLYNMDLSDDHIRVIVQLH [ZER1] | 2.63 ± 0.41 | 2.71 ± 0.54 | – | –
PSMVSGGYVANSSNCISGVCSVRG [KRT71] | 3.35 ± 0.082 | 3.4 ± 0.23 | – | –
GVILHSLKTQSLEGKRKAFYTCAS [OR4A15] | 2.48 ± 0.27 | 2.19 ± 0.27 | – | –
ADYFATFVQREEQLQFLIRYHRFI [CDS1] | 2.2 ± 0.54 | 2.37 ± 0.27 | – | –
IQLKSVADGQESTPPTPAPTSGIV [WASL] | 4.68 ± 0.21 | 4.84 ± 0.16 | – | –
MEPATAPRPDMAPELTPEEEQATK [PTPN9] | 5.71 ± 0.097 | 5.08 ± 0.48 | – | –
AGSIGGLFFAVGIAQYALLGYFIR [SLC22A15] | 3.35 ± 0.72 | 3.4 ± 0.23 | – | –
FRIYKSVIQAVQKSEEGHPFKAYL [RTN3] | 2.4 ± 0.23 | 2.29 ± 0.21 | – | –
GAARSFQEVTEPAVVAVDRQAIFP [PXN] | 4.1 ± 0.26 | 4.04 ± 0.59 | – | –
RKLRELQLRNCLRILMGELSNHHD [BEX3] | 2.38 ± 0.21 | 2.28 ± 0.19 | – | –
GCFRSQGASLRLAVEDGLQQFKQY [M1AP] | 2.88 ± 0.68 | 2.78 ± 0.074 | – | –
LLIPKEDGVITASEDRTIRVWLKR [WDFY1] | 2.42 ± 0.34 | 2.7 ± 0.51 | – | –
SPQIQRSAHRALYRRHVLGIVLQG [TMEM175] | 2.3 ± 0.19 | 2.42 ± 0.36 | – | –
VKVLAFTSIGDGPLSSDIQVITQT [PTPRD] | 2.62 ± 0.48 | 2.31 ± 0.37 | – | –
DQTTSEETVGGAILDQTTSEDAVG [HDAC6] | 5.54 ± 0.2 | 5.54 ± 0.26 | – | –
